Data: the Human Domainome abundance scans (Beltran et al. 2025)
± gives the uncertainty stated by the source.

B1: E3 ubiquitin-protein ligase NEDD4-like, residues 539 to 589; numbered along this chain, Q96PU5 (parent)
chain: KTSLNPNDLGPLPPGWEERIHLDGRTFYIDHNSKITQWEDPRLQNPAITGP
B2: 1-phosphatidylinositol 4,5-bisphosphate phosphodiesterase gamma-2, residues 772 to 827; numbered along this chain, P16885 (parent)
chain: RTVKALYDYKAKRSDELSFCRGALIHNVSKEPGGWWKGDYGTRIQQYFPSNYVEDI

Variants of: B1
Assay: abundance fitness (aPCA) (normalised: wild type 0, dead -1); higher = more abundant; growth selection in yeast, the domain comes from the species named
Conditions: Homo sapiens
For T2V, the abundance fitness was -0.344 ± 0.058. In the case of T2R, the abundance fitness is reported as -0.365 ± 0.069. T2Q showed an abundance fitness of -0.024 ± 0.096. With T2N the abundance fitness was 0.374 ± 0.11. For T2L, the abundance fitness was -0.158 ± 0.054. Variant T2W has an abundance fitness of -0.699 ± 0.062. For T2G, the abundance fitness was -0.308 ± 0.056. In the case of T2H, the abundance fitness is reported as -0.385 ± 0.15. For T2P, the abundance fitness was -0.341 ± 0.061. For T2D, the abundance fitness was 0.142 ± 0.084. In the case of T2A, the abundance fitness is reported as -0.223 ± 0.051. With T2K the abundance fitness was -0.066 ± 0.072. For T2F, the abundance fitness was 0.31 ± 0.09. Variant T2S has an abundance fitness of -0.023 ± 0.046. T2E showed an abundance fitness of -0.1 ± 0.061. In the case of T2C, the abundance fitness is reported as -0.181 ± 0.3. Work on T2I yielded an abundance fitness of 0.067 ± 0.06. In the case of T2Y, the abundance fitness is reported as -0.001 ± 0.069. K1N gave an abundance fitness of -0.041 ± 0.12. K1T gave an abundance fitness of -0.328 ± 0.055. With K1W the abundance fitness was -1.08 ± 0.2. Work on K1E yielded an abundance fitness of -0.473 ± 0.48. K1H gave an abundance fitness of -0.704 ± 0.28. Variant K1R has an abundance fitness of -0.12 ± 0.097. In the case of K1G, the abundance fitness is reported as -1.01 ± 0.27. In the case of K1L, the abundance fitness is reported as -0.313 ± 0.045. Work on K1S yielded an abundance fitness of -0.19 ± 0.068. K1V showed an abundance fitness of -0.885 ± 0.25. K1D gave an abundance fitness of -0.201 ± 0.12. With K1I the abundance fitness was -0.062 ± 0.2. For K1A, the abundance fitness was -0.774 ± 0.27. Variant S3E has an abundance fitness of -0.363 ± 0.071. Variant S3T has an abundance fitness of -0.175 ± 0.041. Variant S3A has an abundance fitness of -0.412 ± 0.047. In the case of S3G, the abundance fitness is reported as -0.353 ± 0.041. For S3I, the abundance fitness was -0.162 ± 0.11. Work on S3H yielded an abundance fitness of -0.223 ± 0.047. S3R showed an abundance fitness of -0.338 ± 0.042. With S3P the abundance fitness was -0.308 ± 0.038. With S3L the abundance fitness was -0.345 ± 0.061. Work on S3M yielded an abundance fitness of -0.193 ± 0.084. Work on S3K yielded an abundance fitness of -0.264 ± 0.08. Work on S3Q yielded an abundance fitness of -0.427 ± 0.07. S3N showed an abundance fitness of 0.093 ± 0.065. With S3D the abundance fitness was -0.085 ± 0.064. With S3C the abundance fitness was -0.339 ± 0.1.

Variants of: B2
Assay: as above
Conditions: Homo sapiens
Variant RTVKALYDYKAKRSDELSFCRGALIHNVSKEPGGWWKGDYGTRIQQYFPSNYGEDI [V53G] has an abundance fitness of -0.923 ± 0.073. RTVKALYDYKAKRSDELSFCRGALIHNVSKEPGGWWKGDYGTRIQQYFPSNYKEDI [V53K] showed an abundance fitness of -0.979 ± 0.15. Work on RTVKALYDYKAKRSDELSFCRGALIHNVSKEPGGWWKGDYGTRIQQYFPSNYMEDI [V53M] yielded an abundance fitness of -0.731 ± 0.22. For RTVKALYDYKAKRSDELSFCRGALIHNVSKEPGGWWKGDYGTRIQQYFPSNYLEDI [V53L], the abundance fitness was -0.876 ± 0.12. RTVKALYDYKAKRSDELSFCRGALIHNVSKEPGGWWKGDYGTRIQQYFPSNYHEDI [V53H] gave an abundance fitness of -0.947 ± 0.34. With RTVKALYDYKAKRSDELSFCRGALIHNVSKEPGGWWKGDYGTRIQQYFPSNYDEDI [V53D] the abundance fitness was -0.823 ± 0.25. With RTVKALYDYKAKRSDELSFCRGALIHNVSKEPGGWWKGDYGTRIQQYFPSNYEEDI [V53E] the abundance fitness was -0.934 ± 0.28. RTVKALYDYKAKRSDELSFCRGALIHNVSKEPGGWWKGDYGTRIQQYFPSNYFEDI [V53F] gave an abundance fitness of -0.803 ± 0.37. RTVKALYDYKAKRSDELSFCRGALIHNVSKEPGGWWKGDYGTRIQQYFPSNYTEDI [V53T] gave an abundance fitness of -0.177 ± 0.091. Variant RTVKALYDYKAKRSDELSFCRGALIHNVSKEPGGWWKGDYGTRIQQYFPSNYPEDI [V53P] has an abundance fitness of -1.02 ± 0.32. With RTVKALYDYKAKRSDELSFCRGALIHNVSKEPGGWWKGDYGTRIQQYFPSNYQEDI [V53Q] the abundance fitness was -0.731 ± 0.35. With RTVKALYDYKAKRSDELSFCRGALIHNVSKEPGGWWKGDYGTRIQQYFPSNYREDI [V53R] the abundance fitness was -0.836 ± 0.12. Work on RTVKALYDYKAKRSDELSFCRGALIHNVSKEPGGWWKGDYGTRIQQYFPSNYAEDI [V53A] yielded an abundance fitness of -0.442 ± 0.093. In the case of RTVKALYDYKAKRSDELSFCRGALIHNVSKEPGGWWKGDYGTRIQQYFPSNYVEEI [D55E], the abundance fitness is reported as 0.065 ± 0.089. In the case of RTVKALYDYKAKRSDELSFCRGALIHNVSKEPGGWWKGDYGTRIQQYFPSNYVEHI [D55H], the abundance fitness is reported as -0.213 ± 0.1. In the case of RTVKALYDYKAKRSDELSFCRGALIHNVSKEPGGWWKGDYGTRIQQYFPSNYVEFI [D55F], the abundance fitness is reported as -0.202 ± 0.09. In the case of RTVKALYDYKAKRSDELSFCRGALIHNVSKEPGGWWKGDYGTRIQQYFPSNYVEMI [D55M], the abundance fitness is reported as 0.086 ± 0.14.
